This test has as its target GST-tagged human FcRn (human; Schistosoma japonicum) (UniProt P55899). Briefly: ELISA pH 6.0, h9C12 variant captured on AdV5 hexon, GST-hFcRn detected with anti-GST-HRP. On the technique in general: ELISA stands for enzyme-linked immunosorbent assay.

From patent US20190077883A1 come the findings set out here.

Chain of GST-tagged human FcRn (human; Schistosoma japonicum) (P55899 24-297, chain 1 of 2): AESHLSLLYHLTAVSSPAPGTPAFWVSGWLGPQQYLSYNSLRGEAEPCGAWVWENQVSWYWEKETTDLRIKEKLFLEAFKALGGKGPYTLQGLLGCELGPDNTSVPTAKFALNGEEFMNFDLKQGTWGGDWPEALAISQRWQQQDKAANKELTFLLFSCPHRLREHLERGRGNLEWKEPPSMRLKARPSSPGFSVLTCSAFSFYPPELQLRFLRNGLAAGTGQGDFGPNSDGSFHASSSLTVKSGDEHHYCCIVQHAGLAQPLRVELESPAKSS
Chain of GST-tagged human FcRn (human; Schistosoma japonicum) (P61769 21-119, chain 2 of 2, further chain): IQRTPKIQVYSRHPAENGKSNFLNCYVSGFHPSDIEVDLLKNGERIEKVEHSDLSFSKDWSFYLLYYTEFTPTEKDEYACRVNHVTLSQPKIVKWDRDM

B1: h9C12 IgG3(b)-Q311R/N434W/M428E/R435H (antibody, part only; not given: variable domains, not shown: another chain or arm of the molecule)
constant: ASTKGPSVFPLAPCSRSTSGGTAALGCLVKDYFPEPVTVSWNSGALTSGVHTFPAVLQSSGLYSLSSVVTVPSSSLGTQTYTCNVNHKPSNTKVDKRVELKTPLGDTTHTCPRCPEPKSCDTPPPCPRCPEPKSCDTPPPCPRCPEPKSCDTPPPCPRCPAPELLGGPSVFLFPPKPKDTLMISRTPEVTCVVVDVSHEDPEVQFKWYVDGVEVHNAKTKPREEQYNSTFRVVSVLTVLHRDWLNGKEYKCKVSNKALPAPIEKTISKTKGQPREPQVYTLPPSREEMTKNQVSLTCLVKGFYPSDIAVEWESSGQPENNYNTTPPMLDSDGSFFLYSKLTVDKSRWQQGNIFSCSVEHEALHWHFTQKSLSLSPGK
B1 gave a Fold change from WT (ELISA) pH 6.0 of 3 fold.
